The data set can be described thus: self-splicing fitness, log relative to wild type (ln ratio); higher = more splicing; Tetrahymena group I intron in knt gene, E. coli kanamycin selection, DiMSum; sequences stand for … in CUCUCU…GGAGGGAAAAGUUAUCAGGCAUGCACCUGGUAGCUAGUCUUUAAACCAAUAGAUUGCAUCGGUUUAAAAGGCAAGACCGUCAAAUUGCGGGAAAGGGGUCAACAGCCGUUCAGUACCAAGUCUCAGGGGAAACUUUGAGAUGGCCUUGCAAAGGGUAUGGUAAUAAGCUGACGGACAUGGUCCUAACCACGCAGCCAAGUCCUAAGUCAACAGAUCUUCUGUUGAUAUGGAUGCAGUUCACAGACUAAAUGUCGGUCGGGGAAGAUGUAUUCUUCUCAUAAGAUAUAGUCGGACCUCUCCUUAAUGGGAGCUAGCGGAUGAAGUGAUGCAACACUGGAGCCGCUGGGAACUAAUUUGUAUGCGAAAGUAUAUUGAUUAGUUUUGGAGUACUCGUGGUCG
An outline of the steps:
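Library with all eight P1ex-region intron nucleotides randomised, intron inside the knt kanamycin-resistance gene on pET-22b(+), in E. coli BL21(DE3). Cells grew overnight at 37°C or 30°C on LB agar with or without 25 μg/mL kanamycin (plus 100 μg/mL carbenicillin, 50 μM IPTG, 0.2% rhamnose), in six replicate transformations. Pooled colonies were amplicon-sequenced on Illumina HiSeq 2500. DiMSum fitness is the error-weighted combination of wild-type-normalised replicate fold changes, kanamycin versus none.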

± gives the uncertainty stated by the source.

For the sequence AAUUAGCAAUAUUACGUAUU, the “self-splicing fitness (ln)” value (30 °C) is -2.32 ± 0.18 and the “self-splicing fitness (ln)” value (37 °C) is -0.913 ± 0.14.

In the case of UGGAAGCAAUAUUACGAUAU, the “self-splicing fitness (ln)” value runs as follows: (30 °C) -2.59 ± 0.18; (37 °C) -2.39 ± 0.21.

With AGCUAGCAAUAUUACGACUA, the “self-splicing fitness (ln)” value is -0.935 ± 0.14 (30 °C) and -0.86 ± 0.13 (37 °C).

AUCCAGCAAUAUUACGCGCC: the “self-splicing fitness (ln)” value reads like this: (30 °C) -0.363 ± 0.14; (37 °C) 0.126 ± 0.17.

In the case of GUUUAGCAAUAUUACGCCGU, the “self-splicing fitness (ln)” value is -2.03 ± 0.13 (30 °C) and -0.93 ± 0.14 (37 °C).

AAAAAGCAAUAUUACGAUCG: the “self-splicing fitness (ln)” value by setting is: (30 °C) -0.0337 ± 0.054; (37 °C) 0.0375 ± 0.068.

Take GAAGAGCAAUAUUACGAAUG: under “30 °C”, the “self-splicing fitness (ln)” value was -2.23 ± 0.4.

On to ACGAAGCAAUAUUACGGCUG, for which the “self-splicing fitness (ln)” value is, setting by setting: (30 °C) -0.78 ± 0.052; (37 °C) -0.0127 ± 0.084.

As for GAACAGCAAUAUUACGAGCG, the “self-splicing fitness (ln)” value was -1.94 ± 0.089 (30 °C) and -0.559 ± 0.1 (37 °C).

Consider AGGUAGCAAUAUUACGGCUU, for which the “self-splicing fitness (ln)” value is -0.489 ± 0.015 (30 °C) and -0.184 ± 0.034 (37 °C).

As for GACCAGCAAUAUUACGCACU, the “self-splicing fitness (ln)” value (30 °C) is -0.104 ± 0.06 and the “self-splicing fitness (ln)” value (37 °C) came out at 0.195 ± 0.079.

Regarding CUCUAGCAAUAUUACGACAU, the “self-splicing fitness (ln)” value was -3.866 ± 0.033 (30 °C) and -3.6 ± 0.044 (37 °C).

As for CUUGAGCAAUAUUACGGGAA, the “self-splicing fitness (ln)” value (30 °C) is -3.79 ± 0.42 and the “self-splicing fitness (ln)” value (37 °C) was -2.73 ± 0.2.

In the case of ACAGAGCAAUAUUACGACGG, the “self-splicing fitness (ln)” value was -2.78 ± 0.24 (30 °C) and -1.65 ± 0.27 (37 °C).

On to AUUGAGCAAUAUUACGCAGG, for which the “self-splicing fitness (ln)” value runs as follows: (30 °C) -3.68 ± 0.29; (37 °C) -2.72 ± 0.27.

On to CGGGAGCAAUAUUACGCACC, for which the “self-splicing fitness (ln)” value (30 °C) was -3.47 ± 0.39.

As to UGUAAGCAAUAUUACGGGCU, the “self-splicing fitness (ln)” value is, setting by setting: (30 °C) -1.73 ± 0.17; (37 °C) -0.63 ± 0.16.

With AUUAAGCAAUAUUACGAAAG, the “self-splicing fitness (ln)” value was -1.89 ± 0.15 (30 °C) and -1.23 ± 0.16 (37 °C).

For the sequence GAACAGCAAUAUUACGGAGA, the “self-splicing fitness (ln)” value (30 °C) was -1.55 ± 0.19 and the “self-splicing fitness (ln)” value (37 °C) was -1.88 ± 0.13.

Regarding CAGAAGCAAUAUUACGAGCG, the “self-splicing fitness (ln)” value (30 °C) is -0.175 ± 0.068 and the “self-splicing fitness (ln)” value (37 °C) came out at 0.538 ± 0.086.

As for GGUAAGCAAUAUUACGCGGC, the “self-splicing fitness (ln)” value runs as follows: (30 °C) -2.84 ± 0.19; (37 °C) -1.29 ± 0.2.

Take AUUAAGCAAUAUUACGCUUA: the “self-splicing fitness (ln)” value was -2.18 ± 0.26 (30 °C) and -1.82 ± 0.25 (37 °C).

For UCAGAGCAAUAUUACGCGGC, the “self-splicing fitness (ln)” value (37 °C) is -3.08 ± 0.4.

With CAGAAGCAAUAUUACGAUCA, the “self-splicing fitness (ln)” value by setting is: (30 °C) -2.19 ± 0.14; (37 °C) -1.84 ± 0.17.

As for UCAGAGCAAUAUUACGCCAA, the “self-splicing fitness (ln)” value runs as follows: (30 °C) -2.84 ± 0.25; (37 °C) -1.74 ± 0.29.

In the case of AUGGAGCAAUAUUACGACCG, the “self-splicing fitness (ln)” value was -3.83 ± 0.37 (30 °C) and -1.19 ± 0.26 (37 °C).

On to AUACAGCAAUAUUACGGGAC, for which the “self-splicing fitness (ln)” value (30 °C) was -2.14 ± 0.15 and the “self-splicing fitness (ln)” value (37 °C) is -1.74 ± 0.17.

Regarding UAGCAGCAAUAUUACGAAUU, the “self-splicing fitness (ln)” value is -2.58 ± 0.18 (30 °C) and -2.66 ± 0.24 (37 °C).

AGGUAGCAAUAUUACGAUUC: the “self-splicing fitness (ln)” value runs as follows: (30 °C) -1.1 ± 0.015; (37 °C) -0.359 ± 0.034.

Consider ACCGAGCAAUAUUACGUUUC, for which the “self-splicing fitness (ln)” value (30 °C) was -4.37 ± 0.29 and the “self-splicing fitness (ln)” value (37 °C) was -2.94 ± 0.32.

As to CUUAAGCAAUAUUACGCCAU, the “self-splicing fitness (ln)” value is -1.9 ± 0.33 (30 °C) and -2.35 ± 0.29 (37 °C).

For the sequence AACCAGCAAUAUUACGUGCC, the “self-splicing fitness (ln)” value (30 °C) was -1.44 ± 0.063 and the “self-splicing fitness (ln)” value (37 °C) was -0.956 ± 0.079.

For the sequence UCUUAGCAAUAUUACGGGCU, the “self-splicing fitness (ln)” value was -4.8 ± 0.46 (30 °C) and -2.26 ± 0.28 (37 °C).

Consider CAUUAGCAAUAUUACGGGGG, for which the “self-splicing fitness (ln)” value was -2.52 ± 0.21 (30 °C) and -1.19 ± 0.15 (37 °C).

As to CUCGAGCAAUAUUACGGUGA, the “self-splicing fitness (ln)” value (30 °C) was -2.66 ± 0.19 and the “self-splicing fitness (ln)” value (37 °C) was -0.793 ± 0.16.

As for CGCGAGCAAUAUUACGUUCA, the “self-splicing fitness (ln)” value was -2.43 ± 0.19 (30 °C) and -1.5 ± 0.17 (37 °C).

For UUUAAGCAAUAUUACGGGUU, the “self-splicing fitness (ln)” value reads like this: (30 °C) -2.83 ± 0.3; (37 °C) -1.67 ± 0.22.

For AUAAAGCAAUAUUACGCACC, the “self-splicing fitness (ln)” value by setting is: (30 °C) -0.896 ± 0.33; (37 °C) -1.02 ± 0.29.

Regarding CGGUAGCAAUAUUACGCCGA, the “self-splicing fitness (ln)” value by setting is: (30 °C) -0.997 ± 0.24; (37 °C) -1.5 ± 0.25.

Turning to UGAGAGCAAUAUUACGCACC, the “self-splicing fitness (ln)” value (30 °C) was -1.54 ± 0.26 and the “self-splicing fitness (ln)” value (37 °C) is -1.15 ± 0.45.

Regarding GGCUAGCAAUAUUACGGUUU, the “self-splicing fitness (ln)” value was 0.173 ± 0.078 (30 °C) and 0.305 ± 0.09 (37 °C).

Consider ACGGAGCAAUAUUACGAGGA, for which the “self-splicing fitness (ln)” value (30 °C) is -2.89 ± 0.27 and the “self-splicing fitness (ln)” value (37 °C) was -2.92 ± 0.43.

On to AAGUAGCAAUAUUACGCAGC, for which the “self-splicing fitness (ln)” value was -3.59 ± 0.34 (30 °C) and -2.3 ± 0.24 (37 °C).

For AAUCAGCAAUAUUACGGGCG, the “self-splicing fitness (ln)” value is -0.742 ± 0.059 (30 °C) and -0.382 ± 0.075 (37 °C).

In the case of GGGUAGCAAUAUUACGCUCA, the “self-splicing fitness (ln)” value was -0.291 ± 0.17 (30 °C) and -0.622 ± 0.26 (37 °C).

UCAGAGCAAUAUUACGGCAU: the “self-splicing fitness (ln)” value is, setting by setting: (30 °C) -3.07 ± 0.33; (37 °C) -1.87 ± 0.29.

Take CACUAGCAAUAUUACGUGCA: the “self-splicing fitness (ln)” value reads like this: (30 °C) -2.44 ± 0.17; (37 °C) -1.99 ± 0.23.

For GUUGAGCAAUAUUACGAUGA, the “self-splicing fitness (ln)” value (37 °C) was -2.27 ± 0.42.

As to UCGUAGCAAUAUUACGGCCA, the “self-splicing fitness (ln)” value is, setting by setting: (30 °C) -0.72 ± 0.13; (37 °C) -0.85 ± 0.16.

On to GCGUAGCAAUAUUACGUGGA, for which the “self-splicing fitness (ln)” value (30 °C) is -3.68 ± 0.48 and the “self-splicing fitness (ln)” value (37 °C) was -2.23 ± 0.38.

As to CCUAAGCAAUAUUACGCCUC, the “self-splicing fitness (ln)” value (30 °C) is -2.59 ± 0.36.

For the sequence CUACAGCAAUAUUACGCGUA, the “self-splicing fitness (ln)” value is -3.72 ± 0.31 (30 °C) and -2.84 ± 0.3 (37 °C).

As to GCAAAGCAAUAUUACGCCCC, the “self-splicing fitness (ln)” value is -0.913 ± 0.19 (30 °C) and -0.135 ± 0.31 (37 °C).

With ACAUAGCAAUAUUACGCUCA, the “self-splicing fitness (ln)” value reads like this: (30 °C) -0.539 ± 0.11; (37 °C) -0.358 ± 0.12.

For the sequence UUGGAGCAAUAUUACGGUGA, the “self-splicing fitness (ln)” value (30 °C) is -1.27 ± 0.22 and the “self-splicing fitness (ln)” value (37 °C) was -1.36 ± 0.14.

CAAGAGCAAUAUUACGCGUA: the “self-splicing fitness (ln)” value was -2.2 ± 0.27 (30 °C) and -1.95 ± 0.25 (37 °C).

Take CGAGAGCAAUAUUACGAAGU: the “self-splicing fitness (ln)” value (37 °C) is -3.51 ± 0.39.

As to CUCGAGCAAUAUUACGAUUG, the “self-splicing fitness (ln)” value by setting is: (30 °C) -2.53 ± 0.34; (37 °C) -2.04 ± 0.3.

In the case of CAACAGCAAUAUUACGUAAG, the “self-splicing fitness (ln)” value is -0.309 ± 0.044 (30 °C) and 0.376 ± 0.055 (37 °C).

For ACCUAGCAAUAUUACGUGCA, the “self-splicing fitness (ln)” value reads like this: (30 °C) -2.89 ± 0.12; (37 °C) -1.25 ± 0.1.

With AUCCAGCAAUAUUACGAGUG, the “self-splicing fitness (ln)” value was -1.66 ± 0.095 (30 °C) and -1.77 ± 0.11 (37 °C).

In the case of AACCAGCAAUAUUACGCUCG, the “self-splicing fitness (ln)” value reads like this: (30 °C) -0.795 ± 0.075; (37 °C) 0.274 ± 0.097.

The record behind these values is the supplement of paper PMC7877785.
